This is an account of results in patent US20160209421A1 (UNIVERSITY OF TOKYO, published 2016).

Bridge positions count the residues as written; N and C are the ends. Square brackets hold non-standard residues; d marks the D form. * marks the point of attachment. chloroacetamidine = chloroacetamidine warhead on ornithine δ-NH2, N=C(CCl)*; Ahp(2) = CCCCC[C@H](N)C(=O)O; Orn = NCCC[C@H](N)C(=O)O

One test deals with T1, His-PAD4 (human, UniProt Q9UM07 1-663).
T1 construct: Immobilised on a Ni-NTA sensor chip for SPR; No other PAD4 is described; also called peptidyl arginine deaminase 4; not shown: His tag
The test can be described thus: SPR (Biacore T100, Ni-NTA sensor chip, His-PAD4 immobilized, peptide injected, 25 C). The procedure:
Analysis of a reaction rate was performed at 25° C. using Biacore T100 instrument (GE healthcare) and a Ni-NTA sensor chip. His-PAD4 was immobilized on a chip surface. In any experiment, modified HBS-EP+(10 mM HEPES-KOH [pH 7.4], 150 mM NaCl, 50 μM EDTA, 0.05% Tween 20, 0.1% DMSO) was used as a running buffer. The reaction rate data were corrected by injecting five peptides having respectively different concentrations for one minute at a flow rate (10 mM HEPES-KOH [pH 7.4], 150 mM NaCl, 50 μM EDTA, 0.05% Tween 20, 0.1% DMSO). Peptide dissociation was performed for one minute during injection and for 3 minutes after the last injection.
Background binding was monitored by performing blank buffer injection twice before sample injection and once after sample injection in order to double reference with the surface of a negative control having no His-PAD4 bound thereto but having nickel. The binding sensorgram, the binding sensorgram was analyzed using the Biacore software.
A general note: SPR reads the build-up and loss of mass on a sensor chip optically.

The next test addresses Human PAD4 (human, UniProt Q9UM07 1-663). Briefly: cell-based or functional assay.

As usually defined, the Kd is the free concentration of one partner at which half of the binding sites on the other are occupied at equilibrium, for simple one-to-one binding. A lower Kd goes with higher affinity. A word on the koff: it is the rate constant with which the complex falls apart. What is called kon is a measure of how fast the partners come together. Read a low kon as slow association.

T1 sequence (Q9UM07 whole entry): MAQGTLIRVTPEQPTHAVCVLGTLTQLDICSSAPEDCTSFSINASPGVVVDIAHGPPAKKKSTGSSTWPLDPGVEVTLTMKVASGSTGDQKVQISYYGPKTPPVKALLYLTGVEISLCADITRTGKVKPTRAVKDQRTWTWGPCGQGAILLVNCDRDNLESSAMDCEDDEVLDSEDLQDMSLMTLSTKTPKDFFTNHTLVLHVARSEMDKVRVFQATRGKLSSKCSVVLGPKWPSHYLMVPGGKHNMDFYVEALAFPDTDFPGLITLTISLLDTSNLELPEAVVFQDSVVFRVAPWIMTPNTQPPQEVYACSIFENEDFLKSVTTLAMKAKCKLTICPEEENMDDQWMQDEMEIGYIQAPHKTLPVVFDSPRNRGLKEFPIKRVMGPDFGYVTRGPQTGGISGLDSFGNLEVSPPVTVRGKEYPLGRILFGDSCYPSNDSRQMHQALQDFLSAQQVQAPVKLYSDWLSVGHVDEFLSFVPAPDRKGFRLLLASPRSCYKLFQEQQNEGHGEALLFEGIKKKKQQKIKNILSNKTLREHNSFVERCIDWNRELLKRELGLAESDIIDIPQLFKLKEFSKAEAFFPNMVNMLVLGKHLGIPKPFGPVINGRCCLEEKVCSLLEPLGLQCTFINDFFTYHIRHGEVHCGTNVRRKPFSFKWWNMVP
Chain of Human PAD4 (Q9UM07 whole entry): as above

B1: VB1C12 peptide (peptide)
peptide: {CH2CO}-[dF]NA[Ahp(2)]YPYRPP[Ahp(2)]TSC-NH2
modifications: thioether N-14
SMILES: CCCCC[C@@H]1NC(=O)[C@H](C)NC(=O)[C@H](CC(N)=O)NC(=O)[C@@H](Cc2ccccc2)NC(=O)CSC[C@@H](C(N)=O)NC(=O)[C@H](CO)NC(=O)[C@H]([C@@H](C)O)NC(=O)[C@H](CCCCC)NC(=O)[C@@H]2CCCN2C(=O)[C@@H]2CCCN2C(=O)[C@H](CCCNC(=N)N)NC(=O)[C@H](Cc2ccc(O)cc2)NC(=O)[C@@H]2CCCN2C(=O)[C@H](Cc2ccc(O)cc2)NC1=O
In the test with His-PAD4, B1 came in with a Kd of 55 nM, a koff of 0.00664 s⁻¹ and a kon of 121000 M⁻¹ s⁻¹.

B2: VB1C20 peptide (peptide)
peptide: {CH2CO}-[dF]DA[Ahp(2)]YPFRPP[Ahp(2)]AHC-NH2
modifications: thioether N-14
SMILES: CCCCC[C@@H]1NC(=O)[C@H](C)NC(=O)[C@H](CC(=O)O)NC(=O)[C@@H](Cc2ccccc2)NC(=O)CSC[C@@H](C(N)=O)NC(=O)[C@H](Cc2c[nH]cn2)NC(=O)[C@H](C)NC(=O)[C@H](CCCCC)NC(=O)[C@@H]2CCCN2C(=O)[C@@H]2CCCN2C(=O)[C@H](CCCNC(=N)N)NC(=O)[C@H](Cc2ccccc2)NC(=O)[C@@H]2CCCN2C(=O)[C@H](Cc2ccc(O)cc2)NC1=O
On to B2, for which, in the test with His-PAD4, the Kd is 38.7 nM, the koff amounted to 0.00356 s⁻¹ and the kon worked out at 92100 M⁻¹ s⁻¹.

B3: VB1C12-Cl-amidine analog (peptide)
peptide: {CH2CO}-[dF]NA[Ahp(2)]YPY[Orn](chloroacetamidine)PP[Ahp(2)]TSC-NH2
modifications: thioether N-14
SMILES: CCCCC[C@@H]1NC(=O)[C@H](C)NC(=O)[C@H](CC(N)=O)NC(=O)[C@@H](Cc2ccccc2)NC(=O)CSC[C@@H](C(N)=O)NC(=O)[C@H](CO)NC(=O)[C@H]([C@@H](C)O)NC(=O)[C@H](CCCCC)NC(=O)[C@@H]2CCCN2C(=O)[C@@H]2CCCN2C(=O)[C@H](CCCNC(=N)CCl)NC(=O)[C@H](Cc2ccc(O)cc2)NC(=O)[C@@H]2CCCN2C(=O)[C@H](Cc2ccc(O)cc2)NC1=O
For B3, in the test with Human PAD4, the “IC50 (read off the curve)” value is roughly 8000 nM.
